From patent US20040170976A1, “Solubility reporter gene constructs” (priority 2000, published 2004)

B1: TM0688: T. maritima glyceraldehyde-3-phosphate dehydrogenase (gap) (protein, UniProt P17721 2-333, looked up)
Glyceraldehyde-3-phosphate …: ARVAINGFGRIGRLVYRIIYERKNPDIEVVAINDLTDTKTLAHLLKYDSVHKKFPGKVEYTENSLIVDGKEIKVFAEPDPSKLPWKDLGVDFVIESTGVFRNREKAELHLQAGAKKVIITAPAKGEDITVVIGCNEDQLKPEHTIISCASCTTNSIAPIVKVLHEKFGIVSGMLTTVHSYTNDQRVLDLPHKDLRRARAAAVNIIPTTTGAAKAVALVVPEVKGKLDGMAIRVPTPDGSITDLTVLVEKETTVEEVNAVMKEATEGRLKGIIGYNDEPIVSSDIIGTTFSGIFDATITNVIGGKLVKVASWYDNEYGYSNRVVDTLELLLKM
B2: TM0574: T. maritima S-adenosylmethionine tRNA ribosyltransferase (queA) (protein, UniProt Q9WZ44 1-335, looked up)
S-adenosylmethionine:tRNA …: MKVSEFDYELPPELIAQEPVEPRDASRLMVLHRKTQRIEHRIFREIIEYLEPGDLLVLNVSKVIPARLYARKKTGASIEILLIERLEEGIWKCLVRPGQKVKKGTELVIDEDLSAVCLGRGEDGTRILKFQPQDDRLIFEKGRTPLPPYIKNEVPLERYQTVYAKEEGSVAAPTAGLHFTPELIEKLKKKGVQFAEVVLHVGIGTFRPVKVEEVEKHKMHEEFYQVPKETVRKLRETRERGNRIVAVGTTTVRTLETIARLPEQEEYVGKTDLFIYPPFEFKLVDALVTNFHLPRSTLLMLVAAFAGKDFVMEAYREAVKRRYRFFSFGDAMLIL
B3: TM0556: T. maritima 3-isopropylmalate dehydrogenase (leuB) (protein, UniProt Q9WZ26 1-354, looked up)
3-isopropylmalate …: MKIAVLPGDGIGPEVVREALKVLEVVEKKTGKTFEKVFGHIGGDAIDRFGEPLPEETKKICLEADAIFLGSVGGPKWDDLPPEKRPEIGGLLALRKMLNLYANIRPIKVYRSLVHVSPLKEKVIGSGVDLVTVRELSYGVYYGQPRGLDEEKGFDTMIYDRKTVERIARTAFEIAKNRRKKVTSVDKANVLYSSMLWRKVVNEVAREYPDVELTHIYVDNAAMQLILKPSQFDVILTTNMFGDILSDESAALPGSLGLLPSASFGDKNLYEPAGGSAPDIAGKNIANPIAQILSLAMMLEHSFGMVEEARKIERAVELVIEEGYRTRDIAEDPEKAVSTSQMGDLICKKLEEIW
B4: TM0294: T. maritima glutamate 5-kinase (proB) (protein, UniProt Q9WYD0 1-353, looked up)
Glutamate 5-kinase: MIMKVVVKVGSNLLVGSSGLRKSYIAELCREVARLKSQGHEISIITSGARAAGFTYLGKGKRTQDLHIKQALCAVGQVQLMKVYENAFDFYGIKIAQILLTRDTFSNRKRYLNLRNTLIGLSEFDVVPIVNENDTVATEEITLGDNDTLAAMFSIAWDADFLVLFTTVDGVIDENGKLVERFDESVKLKDMGKSSWGTGGIRSKIESALMASRCGVKATICSGNDVSNLTRFVKGEPVGTVFEPQGRLKAKKAWIAFLSEPAGKIYVNKGAEEALKSGNSLLPVGVTGVEGTFDVGDVVEIVNEEGELVGRGIVNYSSSDLEKIAGHKSSDLKKILGYEGNKVVVHIDNMWVA

How the values were obtained:
[1] = Fractionation of soluble and insoluble recombinant protein by cell lysis and centrifugation / SDS-PAGE; type: physicochemical; settings: T. maritima proteins expressed in E. coli; SDS-PAGE of soluble and insoluble fractions
Procedure: E. coli strains MG1655 (F^−lam rph1) and KY1429 (F- araD139 Δ(argF-lac)169 lam flhD5301 fruA25 relA1 rpsL150 zhh50::Tn10 rpoH606(ts) deoC1) were transformed with expression plasmids encoding M36881 (LCK) or M86400 (PLA) for expression profiling. Cells were cultured at 37° C. in Luria Broth containing ampicillin. Protein expression was induced by addition of L-arabinose to a final concentration of 0.1% for 1 hour. KY1429 cells were cultured as above except initial growth was performed at 32° C. followed by a shift to 42° C. for non-permissive expression of rpoH606. Top10 cells (F^−-mcrA Δ(mrr-hsdRMS-mcrBC) φ80lacZΔM15 ΔlacX74 deoR recA1 araD139 Δ(ara-leu)7697 galU galK rpsL endA1 nupG) containing the ibpAB promoter fusion (pHK57), were transformed with expression constructs listed above. Beta-galactosidase assays were performed essentially as described by Miller (24). Fractionation of soluble and insoluble proteins was performed by centrifugation. Cultures were resuspended in 50 mM Tris pH 7.9, 50 mM NaCl, 1 mM MgCl2, 3 mM methionine and sonicated for 2 minutes on ice. Cell debris and insoluble protein aggregates were pelleted by centrifugation at 3000×g for 15 minutes. The soluble fraction was removed and the pellets resuspended in an equivalent volume of lysis buffer.

[2] = pI of T. maritima proteins; type: physicochemical, Thermotoga maritima

Molecule | pre-determined expression characteristics [1] | pI [2]
B1 | Insoluble | 6.21
B2 | Soluble | 8.61
B3 | Soluble | 5.44
B4 |  | 6.92
